Tests used:
[1] = biological target: T1, Recombinant soluble RSV F stabilized in the pre-fusion conformation (soluble, processed, stabilized RSV F … (respiratory syncytial virus (RSV), UniProt P03420 26-513)); assay: sandwich ELISA: antibody coated, preF titrated, CR9506-HRP detection; preF + compound VII, trimer:compound 1:3
T1 construct: also called RSV pre-fusion F protein; RSV prefusion F

[2] = biological target: T1, Recombinant soluble RSV F stabilized in …; assay: sandwich ELISA: antibody coated, preF titrated, CR9506-HRP detection; preF + compound VII, trimer:compound 1:50
[3] = biological target: T1, Recombinant soluble RSV F stabilized in …; assay: sandwich ELISA: antibody coated, preF titrated, CR9506-HRP detection; preF + compound III, trimer:compound 1:3
[4] = biological target: T1, Recombinant soluble RSV F stabilized in …; assay: sandwich ELISA: antibody coated, preF titrated, CR9506-HRP detection; preF + compound III, trimer:compound 1:50
[5] = biological target: T1, Recombinant soluble RSV F stabilized in …; assay: sandwich ELISA: antibody coated, preF titrated, CR9506-HRP detection; preF + compound VII, trimer:compound 1:10
[6] = biological target: T1, Recombinant soluble RSV F stabilized in …; assay: sandwich ELISA: antibody coated, preF titrated, CR9506-HRP detection; preF + DMSO
[7] = biological target: T1, Recombinant soluble RSV F stabilized in …; assay: sandwich ELISA: antibody coated, preF titrated, CR9506-HRP detection; preF + compound III, trimer:compound 1:10
[8] = biological target: T1, Recombinant soluble RSV F stabilized in …; assay: sandwich ELISA: antibody coated, preF titrated, CR9506-HRP detection; preF alone

B1: CR9506 (antibody, human IgG1, kappa, V domains shown)
VH: EVQLVQSGAEVKKPGSSVKVSCKASGGTFSRSLITWVRQAPGQGLEWMGEISLVFGSAKNAQKFQGRVTITADESTSTAHMEMISLKHEDTAVYYCAAHQYGSGTHNNFWDESELRFDLWGQGTLVTVSS
VL: DIVMTQSPSSLSASVGDRVTIACRASQSIGTYLNWYQQKPGKAPKLLIYAASSLQSGVPSRFSGSGSGTHFTLAISSLQAEDFATYSCQQSYTIPYTFGQGTKLEIKR
notes: An HRP-labelled CR9506 was also the detection antibody in the ELISA; also called CR9506 (pan)
- EC50 [1]: 0.32 nM
- EC50 (half-maximal binding concentration) [2]: 0.31 nM
- EC50 (half-maximal binding concentration) [3]: 0.3 nM
- EC50 [4]: 0.31 nM
- EC50 [5]: 0.29 nM
- EC50 [6]: 0.29 nM
- EC50 (half-maximal binding concentration) [7]: 0.29 nM
- IC50 [8]: 0.28 nM

Reference: patent US20230310573A1 (Janssen / Centocor, published 2023)
